# Test results: PMC10786891, “Massively parallel profiling of RNA-targeting CRISPR-Cas13d”
# T1: EsCas13d, nuclease-dead (Eubacterium siraeum, UniProt B0MS50, R295A;H300A;R849A;H854A)
# T1 sequence: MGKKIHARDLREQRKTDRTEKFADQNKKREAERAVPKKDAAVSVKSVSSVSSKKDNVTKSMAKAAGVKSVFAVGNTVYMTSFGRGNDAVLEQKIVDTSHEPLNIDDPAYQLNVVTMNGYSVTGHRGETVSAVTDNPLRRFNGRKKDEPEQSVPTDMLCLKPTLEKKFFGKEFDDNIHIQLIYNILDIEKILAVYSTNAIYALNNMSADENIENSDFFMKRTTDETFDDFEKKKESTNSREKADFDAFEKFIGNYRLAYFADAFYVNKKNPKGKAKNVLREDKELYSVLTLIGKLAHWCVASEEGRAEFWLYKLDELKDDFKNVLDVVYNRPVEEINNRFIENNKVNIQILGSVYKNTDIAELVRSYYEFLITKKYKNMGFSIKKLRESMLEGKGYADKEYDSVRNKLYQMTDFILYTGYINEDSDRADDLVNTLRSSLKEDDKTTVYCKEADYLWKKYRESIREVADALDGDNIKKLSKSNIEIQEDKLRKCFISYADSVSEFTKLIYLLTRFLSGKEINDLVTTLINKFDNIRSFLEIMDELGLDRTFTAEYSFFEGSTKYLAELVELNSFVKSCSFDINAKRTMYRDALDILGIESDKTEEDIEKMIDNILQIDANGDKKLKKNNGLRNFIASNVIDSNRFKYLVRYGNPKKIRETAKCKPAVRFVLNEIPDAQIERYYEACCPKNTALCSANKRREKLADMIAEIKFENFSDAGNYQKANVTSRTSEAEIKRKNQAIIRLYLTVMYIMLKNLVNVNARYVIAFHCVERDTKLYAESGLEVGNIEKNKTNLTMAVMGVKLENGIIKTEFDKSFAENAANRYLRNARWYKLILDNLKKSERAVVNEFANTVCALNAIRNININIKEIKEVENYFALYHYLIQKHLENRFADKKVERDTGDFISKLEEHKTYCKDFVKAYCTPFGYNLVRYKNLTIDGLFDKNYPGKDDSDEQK
# Molecular target: T1, EsCas13d, nuclease-dead
# Test: crRNA (strand 1, pre-loaded); Mg2+; 40 mM Tris-HCl pH 7.5, 150 mM NaCl, 6 mM MgCl2, 1 mM DTT, 0.1% Tween-20, 0.2 mg/ml BSA; 25 C; 10 min per concentration, then washed
# Settings: tags: His6-TwinStrep-SUMO cleaved; N-terminal SNAP kept (SNAP-Surface 488); label: 3' end held by stalled T7 RNA polymerase
row,Binder,Kd [nM]
1,target 2 MT 5'PFS UAG 3'PFS UCC (mixed) RNA 1: CACCCGUGCAAAAUUGCAGGGGUCUAAAACCUUCUCCAAAUUGUUUCAUCCU RNA 2: GGGAAUGGAUCCACAUCUACGAAUUCUAGAGGAUGAAACAAUUUGGAGAAGUCCAGAUCGGAAGAGCACACGU,7.9 ± 0.8
2,target 2 MT 5'PFS CGC 3'PFS AGU (mixed) RNA 1: CACCCGUGCAAAAUUGCAGGGGUCUAAAACCUUCUCCAAAUUGUUUCAUCCU RNA 2: GGGAAUGGAUCCACAUCUACGAAUUCCGCAGGAUGAAACAAUUUGGAGAAGAGUAGAUCGGAAGAGCACACGU,4.3 ± 0.6
3,target 2 MT 5'PFS GGA 3'PFS UAG (mixed) RNA 1: CACCCGUGCAAAAUUGCAGGGGUCUAAAACCUUCUCCAAAUUGUUUCAUCCU RNA 2: GGGAAUGGAUCCACAUCUACGAAUUCGGAAGGAUGAAACAAUUUGGAGAAGUAGAGAUCGGAAGAGCACACGU,8.7 ± 0.7
4,target 2 MT 5'PFS GGA 3'PFS UAU (mixed) RNA 1: CACCCGUGCAAAAUUGCAGGGGUCUAAAACCUUCUCCAAAUUGUUUCAUCCU RNA 2: GGGAAUGGAUCCACAUCUACGAAUUCGGAAGGAUGAAACAAUUUGGAGAAGUAUAGAUCGGAAGAGCACACGU,9.1 ± 1.1
5,target 2 MT 5'PFS CAG 3'PFS CAC (mixed) RNA 1: CACCCGUGCAAAAUUGCAGGGGUCUAAAACCUUCUCCAAAUUGUUUCAUCCU RNA 2: GGGAAUGGAUCCACAUCUACGAAUUCCAGAGGAUGAAACAAUUUGGAGAAGCACAGAUCGGAAGAGCACACGU,5.6 ± 1.6
6,target 2 MT 5'PFS CAG 3'PFS CAA (mixed) RNA 1: CACCCGUGCAAAAUUGCAGGGGUCUAAAACCUUCUCCAAAUUGUUUCAUCCU RNA 2: GGGAAUGGAUCCACAUCUACGAAUUCCAGAGGAUGAAACAAUUUGGAGAAGCAAAGAUCGGAAGAGCACACGU,6.6 ± 2.7
7,target 2 MT 5'PFS CAG 3'PFS CAG (mixed) RNA 1: CACCCGUGCAAAAUUGCAGGGGUCUAAAACCUUCUCCAAAUUGUUUCAUCCU RNA 2: GGGAAUGGAUCCACAUCUACGAAUUCCAGAGGAUGAAACAAUUUGGAGAAGCAGAGAUCGGAAGAGCACACGU,7.2 ± 1.2
8,target 2 MT 5'PFS GGA 3'PFS UAC (mixed) RNA 1: CACCCGUGCAAAAUUGCAGGGGUCUAAAACCUUCUCCAAAUUGUUUCAUCCU RNA 2: GGGAAUGGAUCCACAUCUACGAAUUCGGAAGGAUGAAACAAUUUGGAGAAGUACAGAUCGGAAGAGCACACGU,16.1 ± 2.7
9,target 2 MT 5'PFS GGA 3'PFS CAG (mixed) RNA 1: CACCCGUGCAAAAUUGCAGGGGUCUAAAACCUUCUCCAAAUUGUUUCAUCCU RNA 2: GGGAAUGGAUCCACAUCUACGAAUUCGGAAGGAUGAAACAAUUUGGAGAAGCAGAGAUCGGAAGAGCACACGU,11.5 ± 1.5
10,target 2 MT 5'PFS GGA 3'PFS UAA (mixed) RNA 1: CACCCGUGCAAAAUUGCAGGGGUCUAAAACCUUCUCCAAAUUGUUUCAUCCU RNA 2: GGGAAUGGAUCCACAUCUACGAAUUCGGAAGGAUGAAACAAUUUGGAGAAGUAAAGAUCGGAAGAGCACACGU,5.6 ± 0.9
11,target 2 MT 5'PFS GUA 3'PFS UGU (mixed) RNA 1: CACCCGUGCAAAAUUGCAGGGGUCUAAAACCUUCUCCAAAUUGUUUCAUCCU RNA 2: GGGAAUGGAUCCACAUCUACGAAUUCGUAAGGAUGAAACAAUUUGGAGAAGUGUAGAUCGGAAGAGCACACGU,15.2 ± 1.2
12,target 2 MT 5'PFS GCC 3'PFS CUA (mixed) RNA 1: CACCCGUGCAAAAUUGCAGGGGUCUAAAACCUUCUCCAAAUUGUUUCAUCCU RNA 2: GGGAAUGGAUCCACAUCUACGAAUUCGCCAGGAUGAAACAAUUUGGAGAAGCUAAGAUCGGAAGAGCACACGU,11.7 ± 2.4
13,"target 1 A14U,G15A (mixed) RNA 1: CACCCGUGCAAAAAUGCAGGGGUCUAAAACUGAGCGGAUAACCUCUCUAUGG RNA 2: GGGAAUGGAUCCACAUCUACGAAUUCGUACCAUAGAAUGGUUAUCCGCUCACCGAGAUCGGAAGAGCACACGU",64 ± 10
